T1: 人FLT3/FLK2受体蛋白 (human, UniProt P36888 27-993)
T1 construct: whole, on cells; Always presented on cells (REH/Reh endogenous); also called CD135; 人酪氨酸激酶受体FLT3/FLK2受体蛋白
T1 sequence (looked up): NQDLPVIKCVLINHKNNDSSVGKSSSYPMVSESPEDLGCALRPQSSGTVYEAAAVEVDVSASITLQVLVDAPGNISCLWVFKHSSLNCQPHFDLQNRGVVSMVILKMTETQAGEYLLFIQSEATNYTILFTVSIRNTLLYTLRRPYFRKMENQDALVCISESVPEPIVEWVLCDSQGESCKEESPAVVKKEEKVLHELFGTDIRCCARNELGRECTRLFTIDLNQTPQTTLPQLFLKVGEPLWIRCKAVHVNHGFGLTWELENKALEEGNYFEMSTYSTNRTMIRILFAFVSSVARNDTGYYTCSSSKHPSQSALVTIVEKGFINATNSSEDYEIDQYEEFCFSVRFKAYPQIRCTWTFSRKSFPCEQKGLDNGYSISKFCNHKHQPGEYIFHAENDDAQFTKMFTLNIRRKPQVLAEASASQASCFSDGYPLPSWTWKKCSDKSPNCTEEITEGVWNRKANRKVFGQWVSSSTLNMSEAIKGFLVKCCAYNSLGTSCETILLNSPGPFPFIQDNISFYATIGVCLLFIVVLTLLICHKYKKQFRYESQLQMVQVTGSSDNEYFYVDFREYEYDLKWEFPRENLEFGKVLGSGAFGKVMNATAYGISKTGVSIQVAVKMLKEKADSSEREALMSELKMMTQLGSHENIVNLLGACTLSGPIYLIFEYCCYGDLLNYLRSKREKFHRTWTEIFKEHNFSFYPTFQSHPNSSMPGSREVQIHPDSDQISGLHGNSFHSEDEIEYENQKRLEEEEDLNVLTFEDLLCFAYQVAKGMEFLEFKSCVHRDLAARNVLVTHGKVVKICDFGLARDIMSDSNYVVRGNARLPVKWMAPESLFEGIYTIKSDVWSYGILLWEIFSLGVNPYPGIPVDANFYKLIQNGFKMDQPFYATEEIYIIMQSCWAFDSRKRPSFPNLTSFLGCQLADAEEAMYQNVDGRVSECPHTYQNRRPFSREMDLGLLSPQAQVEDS

B1: MHC1693 - 3-16HA (antibody, V domains shown)
VH: EVQLQQSGAELVRPGALVKLSCKGSGFNIKDYYIHWVKQRPEQGLEWIGRIDPENDITMYDPKFQGKASITADTSSNTAYLQLSSLTSEDTAVYYCARNGNFFAYWGQGTLVTVSA
VL: not shown
notes: Mouse monoclonal from hybridoma; Entries are called 'light chain' and 'heavy chain'; also called Ab3-16HA
B2: MHC1694 - 1-18BA (antibody, V domains shown)
VH: QVTLKESGPGILQPSQTLSLTCSFSGFSLSTSTMGVGWIRQPSGKGLEWLLHILWNDSKYYNPALKSRLTISKDTYNKQVFLKIANVDTADTATYYCARIVYYSTYVGYFDVWGAGTTVTVSS
VL: DIQMTQSPSSLSASLGERVSLTCRASQEISGYLSWLQQKPDGTIKRLIYAASTLHSGVPKRFSGSRSGSDYSLTISRLESEDVADYYCLQYASYPFTFGSGTKLEIR
notes: Mouse monoclonal from hybridoma; Entries are called 'light chain' and 'heavy chain'; also called Ab1-18New
B3: MHC1692 - 1-23DA (antibody, V domains shown)
VH: B2 VH
VL: B2 VL
notes: Mouse monoclonal from hybridoma; also called Ab1-23DA

Molecular target: T1, 人FLT3/FLK2受体蛋白
Assay: flow cytometry EC curve on REH cells

| binding result | Binder |
| --- | --- |
| binds | B1 |
| binds | B2 |
| binds | B3 |

From CN114829399A (dated 2022)
